Experimental data reported in publication PMC10309188.
pKd: −log10 of the molar value.

Assays:
Test in all cases: SPR
[1] = molecular target: MR1 E76Q E149Q refolded with 5-FSA, biotinylated (SPR) (UniProt Q95460)
[2] = molecular target: MR1 E76Q E149Q refolded with 6-FP, biotinylated (SPR) (UniProt Q95460)
[3] = molecular target: wildtype MR1 refolded with 5-F-SA, biotinylated (SPR) (UniProt Q95460)
[4] = molecular target: wildtype MR1 refolded with 6-FP, biotinylated (SPR) (UniProt Q95460)

- pKd [1]: < 3.82
- pKd [2]: < 3.82
- pKd [3]: < 3.82
- pKd [4]: < 3.82
Substance: AF-7 TCR
